In patent US10047138:

Key:
[1] = molecular target: ICOS-CD3 III fusion protein (human); experiment: cell-based or functional assay
[2] = molecular target: full length human wild type ICOS (human) (UniProt Q9Y6W8); experiment: cell-based or functional assay
Chain of UniProt Q9Y6W8 (Q9Y6W8 21-199): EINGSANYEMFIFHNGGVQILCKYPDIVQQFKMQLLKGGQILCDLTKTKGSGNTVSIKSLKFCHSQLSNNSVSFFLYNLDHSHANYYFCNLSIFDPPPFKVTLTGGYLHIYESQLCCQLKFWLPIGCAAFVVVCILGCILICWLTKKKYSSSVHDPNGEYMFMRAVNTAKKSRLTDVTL

Chain of ICOS-CD3 III fusion protein (human) (chain, as listed by the source limits assumed): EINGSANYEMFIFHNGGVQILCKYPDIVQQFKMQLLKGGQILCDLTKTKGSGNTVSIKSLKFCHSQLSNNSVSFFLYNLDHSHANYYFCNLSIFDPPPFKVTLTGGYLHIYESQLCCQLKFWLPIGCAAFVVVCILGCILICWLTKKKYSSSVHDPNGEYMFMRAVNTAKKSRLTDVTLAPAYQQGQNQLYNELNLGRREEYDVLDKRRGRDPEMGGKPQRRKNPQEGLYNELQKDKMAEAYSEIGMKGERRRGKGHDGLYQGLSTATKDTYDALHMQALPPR

B7RP1-Fc protein (from UniProt O75144 19-253) (Fc fusion)
IL-2 secretion (RLU), difference between clusters 1 (anti-CD3 alone) and 3 (anti-CD3 plus B7RP1-Fc) [1]: > 200 fold | IL-2 secretion by Jurkat cells, 2.5 µg/mL anti-CD3 antibody plus 50 µg/mL B7RP1-Fc against anti-CD3 antibody alone [1]: > 170 fold | IL-2 secretion (RLU), difference between clusters 1 (anti-CD3 alone) and 3 (anti-CD3 plus B7RP1-Fc) [2]: < 8 fold | IL-2 secretion by Jurkat cells, 2.5 µg/mL anti-CD3 antibody plus 50 µg/mL B7RP1-Fc against anti-CD3 antibody alone [2]: < 17 fold
